T1: monkey TfR on CHO cells (monkey)
T1 construct: also called monkey TfR/CHO cells
T1 chain: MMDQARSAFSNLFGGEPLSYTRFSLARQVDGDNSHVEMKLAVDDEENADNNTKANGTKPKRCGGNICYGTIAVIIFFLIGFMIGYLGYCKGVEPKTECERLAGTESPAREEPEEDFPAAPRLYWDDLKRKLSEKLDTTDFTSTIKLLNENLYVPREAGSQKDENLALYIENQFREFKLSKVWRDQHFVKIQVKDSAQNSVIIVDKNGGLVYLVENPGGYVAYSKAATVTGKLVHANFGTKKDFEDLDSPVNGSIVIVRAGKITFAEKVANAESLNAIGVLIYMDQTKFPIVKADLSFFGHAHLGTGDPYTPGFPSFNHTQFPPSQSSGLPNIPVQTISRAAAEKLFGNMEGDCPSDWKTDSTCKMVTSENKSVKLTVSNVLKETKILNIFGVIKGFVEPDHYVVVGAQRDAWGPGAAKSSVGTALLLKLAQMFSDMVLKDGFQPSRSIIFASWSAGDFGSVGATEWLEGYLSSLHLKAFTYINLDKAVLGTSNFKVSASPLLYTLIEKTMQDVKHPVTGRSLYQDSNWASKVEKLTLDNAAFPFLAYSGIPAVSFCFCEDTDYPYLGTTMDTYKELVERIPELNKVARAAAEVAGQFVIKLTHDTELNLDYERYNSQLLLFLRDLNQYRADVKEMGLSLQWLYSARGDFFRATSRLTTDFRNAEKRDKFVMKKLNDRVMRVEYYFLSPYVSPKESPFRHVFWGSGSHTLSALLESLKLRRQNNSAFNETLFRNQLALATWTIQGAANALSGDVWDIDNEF

T2: chimeric TfR A02 (human/mouse chimera, UniProt P02786 89-760)
T2 construct: also called D352S-S355A-D356R-K358N
T2 chain: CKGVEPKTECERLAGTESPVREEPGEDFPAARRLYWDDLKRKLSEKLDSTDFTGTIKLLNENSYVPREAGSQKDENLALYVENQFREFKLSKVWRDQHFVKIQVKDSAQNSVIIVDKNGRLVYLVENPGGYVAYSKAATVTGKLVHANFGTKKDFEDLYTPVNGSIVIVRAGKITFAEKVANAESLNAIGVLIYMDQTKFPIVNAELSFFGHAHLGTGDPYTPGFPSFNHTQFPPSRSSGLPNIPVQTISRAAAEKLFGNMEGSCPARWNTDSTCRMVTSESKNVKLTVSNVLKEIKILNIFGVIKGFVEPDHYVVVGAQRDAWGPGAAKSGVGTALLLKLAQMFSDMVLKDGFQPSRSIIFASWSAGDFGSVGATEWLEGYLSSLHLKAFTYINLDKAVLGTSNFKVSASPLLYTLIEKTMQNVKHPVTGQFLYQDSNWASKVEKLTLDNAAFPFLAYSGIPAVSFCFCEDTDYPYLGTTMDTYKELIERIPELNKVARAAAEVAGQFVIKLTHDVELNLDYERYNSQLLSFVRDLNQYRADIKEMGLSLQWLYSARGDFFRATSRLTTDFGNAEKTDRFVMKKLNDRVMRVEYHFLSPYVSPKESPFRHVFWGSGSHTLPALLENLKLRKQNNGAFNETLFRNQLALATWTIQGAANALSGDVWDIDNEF

T3: huTfR with mouse apical domain (human/mouse chimera, UniProt P02786 89-760)
T3 construct: His tag added; also called chimeric protein of human TfR extracellular domain with mouse apical domain
T3 chain: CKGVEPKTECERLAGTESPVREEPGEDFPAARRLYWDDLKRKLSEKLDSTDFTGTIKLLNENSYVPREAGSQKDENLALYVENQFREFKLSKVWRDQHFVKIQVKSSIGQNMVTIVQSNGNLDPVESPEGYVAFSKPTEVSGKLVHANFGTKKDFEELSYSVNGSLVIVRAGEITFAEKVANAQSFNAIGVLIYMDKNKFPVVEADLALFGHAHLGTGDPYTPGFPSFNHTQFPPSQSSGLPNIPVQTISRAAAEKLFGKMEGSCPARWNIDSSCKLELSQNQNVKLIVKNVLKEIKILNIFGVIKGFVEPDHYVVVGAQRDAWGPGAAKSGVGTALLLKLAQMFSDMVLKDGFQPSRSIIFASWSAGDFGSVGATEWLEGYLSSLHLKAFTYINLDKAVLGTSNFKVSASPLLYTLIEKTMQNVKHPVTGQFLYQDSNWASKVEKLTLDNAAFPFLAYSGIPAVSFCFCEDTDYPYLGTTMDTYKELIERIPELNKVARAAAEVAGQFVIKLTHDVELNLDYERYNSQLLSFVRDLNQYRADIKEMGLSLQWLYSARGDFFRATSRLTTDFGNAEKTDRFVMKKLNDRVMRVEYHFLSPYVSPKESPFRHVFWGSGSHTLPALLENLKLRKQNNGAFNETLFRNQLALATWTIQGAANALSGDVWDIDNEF

T4: huTfR with mouse protease-like domain (human/mouse chimera)
T4 construct: His tag added; also called chimeric protein of human TfR extracellular domain with mouse protease-like domain
T4 chain: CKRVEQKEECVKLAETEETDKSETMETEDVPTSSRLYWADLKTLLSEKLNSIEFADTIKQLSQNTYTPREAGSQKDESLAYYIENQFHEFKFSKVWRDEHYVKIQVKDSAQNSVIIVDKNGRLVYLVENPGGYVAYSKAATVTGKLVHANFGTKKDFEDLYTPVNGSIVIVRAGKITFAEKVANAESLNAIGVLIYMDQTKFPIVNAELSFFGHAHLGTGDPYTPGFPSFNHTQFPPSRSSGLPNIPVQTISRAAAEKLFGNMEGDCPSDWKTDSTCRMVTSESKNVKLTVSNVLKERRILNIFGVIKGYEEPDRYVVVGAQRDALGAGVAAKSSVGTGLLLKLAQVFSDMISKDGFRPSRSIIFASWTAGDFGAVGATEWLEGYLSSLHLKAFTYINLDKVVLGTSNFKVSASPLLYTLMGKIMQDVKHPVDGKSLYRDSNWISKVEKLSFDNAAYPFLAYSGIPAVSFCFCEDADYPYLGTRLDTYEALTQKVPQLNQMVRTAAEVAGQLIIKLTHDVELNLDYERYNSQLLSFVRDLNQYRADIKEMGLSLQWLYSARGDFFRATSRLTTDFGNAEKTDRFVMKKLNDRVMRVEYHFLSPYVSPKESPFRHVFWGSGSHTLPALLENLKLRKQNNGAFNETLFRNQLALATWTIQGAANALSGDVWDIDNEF


Assays:
monkey TfR on CHO cells = target: T1, monkey TfR on CHO cells; assay: flow cytometry of monoclonal phage (scFv) on monkey TfR/CHO cells
Experimental: After the reaction was allowed to proceed under 4° C. for 30 minutes, each well was washed 3 times with PBS-T.

mouse TfR on CHO cells = target: T5, mouse TfR on CHO cells (mouse, UniProt Q62351 1-763); assay: flow cytometry on mouse TfR/CHO cells
T5 construct: also called mouse TfR/CHO
Experimental: Subsequently, an epitope analysis for various types of TfR antibodies was carried out.

chimeric TfR A07 [1] = target: T6, chimeric TfR A07 (human/mouse chimera, UniProt P02786 89-760); assay: ELISA on immobilized chimeric TfR
T6 construct: also called M365L-V366E-E369Q
Experimental: (§1) ELISA was carried out by the following method. To a 96-well immunoplate (NUNC, Inc.) on which an antigen protein was immobilized, 1% (w/v) BSA-PBS(−) pH 7.0 without KCl (hereinafter referred to as blocking solution, Nacalai Tesque, Inc.) was added to perform blocking at room temperature, and thereafter, the anti-TfR antibody diluted with the same solution was added thereto and a reaction was allowed to proceed at room temperature for 1 hour. Thereafter, washing was performed with 0.05% (w/v)-tPBS (1×) without KCl (pH 7.2) (hereinafter referred to as washing solution, Nacalai Tesque, Inc.), Anti-Human IgG (Fc) Goat IgG Fab″-HRP (IBL, Inc.) diluted with the blocking solution was added thereto, and a reaction was allowed to proceed at room temperature for 1 hour. Thereafter, washing was performed with the washing solution, and 1-Step (registered trademark) Ultra TMB-ELISA Substrate Solution (Thermo, Inc.) was added thereto, and a reaction was allowed to proceed at room temperature. The coloring reaction was stopped by adding a 5 N HCl solution, and an absorbance at a wavelength of 450 nm (reference wavelength: 570 nm) was measured using a plate reader (EPOCH 2: BioTek Instruments, Inc.).
(§2) Further, a value obtained by subtracting the absorbance at the reference wavelength of 570 nm from the absorbance at a wavelength of 450 nm was regarded as the binding activity to any of various types of antigen proteins, and a case where a value obtained by dividing the binding activity to any of various types of chimeric TfR by the binding activity to His-huTfR was 0.5 or more was denoted by ++, a case where the value was 0.2 or more and less than 0.5 was denoted by +, and a case where the value was less than 0.2 was denoted by −.

chimeric TfR A02 [2] = target: T2, chimeric TfR A02; assay: ELISA on immobilized chimeric TfR
Experimental: as §1, §2

chimeric TfR A14 [3] = target: T7, chimeric TfR A14 (human/mouse chimera, UniProt P02786 89-760); assay: ELISA on immobilized chimeric TfR
T7 construct: also called D204Q-K205S-E369Q
Experimental: as §1, §2

[4] = target: T3, huTfR with mouse apical domain; assay: ELISA on immobilized chimeric TfR
Experimental: as §1, §2

[5] = target: T4, huTfR with mouse protease-like domain; assay: ELISA on immobilized chimeric TfR; grade = binding relative to His-huTfR (++ 0.5 or more, + 0.2 to less than 0.5)
Experimental: as §1, §2

chimeric TfR A04 = target: T8, chimeric TfR A04 (human/mouse chimera, UniProt P02786 89-760); assay: as above
T8 construct: also called D245E-K261E-D356R
Experimental: as §1, §2

chimeric TfR A03 = target: T9, chimeric TfR A03 (human/mouse chimera, UniProt P02786 89-760); assay: as above
T9 construct: also called D245E-K261E
Experimental: as §1, §2

chimeric TfR A05 [6] = target: T10, chimeric TfR A05 (human/mouse chimera, UniProt P02786 89-760); assay: as above
T10 construct: also called P249S-L274F
Experimental: as §1, §2

chimeric TfR A05 [7] = target: T10, chimeric TfR A05; assay: ELISA on immobilized chimeric TfR
Experimental: as §1, §2

chimeric TfR A07 [8] = target: T6, chimeric TfR A07; assay: ELISA on immobilized chimeric TfR; grade = binding relative to His-huTfR (++ 0.5 or more, + 0.2 to less than 0.5)
Experimental: as §1, §2

chimeric TfR A02 [9] = target: T2, chimeric TfR A02; assay: as above
Experimental: as §1, §2

chimeric TfR A14 [10] = target: T7, chimeric TfR A14; assay: as above
Experimental: as §1, §2

[11] = target: T4, huTfR with mouse protease-like domain; assay: ELISA on immobilized chimeric TfR
Experimental: as §1, §2

[12] = target: T3, huTfR with mouse apical domain; assay: ELISA on immobilized chimeric TfR; grade = binding relative to His-huTfR (++ 0.5 or more, + 0.2 to less than 0.5)
Experimental: as §1, §2

binding result (monkey TfR on CHO cells) | binding result (mouse TfR on CHO cells) | ratio of ELISA binding activity (A450-A570) to chimeric TfR over that to His-huTfR (chimeric TfR A07 [1]) [ratio] | ratio of ELISA binding activity (A450-A570) to chimeric TfR over that to His-huTfR (chimeric TfR A02 [2]) [ratio] | ratio of ELISA binding activity (A450-A570) to chimeric TfR over that to His-huTfR (chimeric TfR A14 [3]) [ratio] | ratio of ELISA binding activity (A450-A570) to chimeric TfR over that to His-huTfR [4] [ratio] | ratio of ELISA binding activity (A450-A570) to chimeric TfR over that to His-huTfR [5] [ratio] | ratio of ELISA binding activity (A450-A570) to chimeric TfR over that to His-huTfR (chimeric TfR A04) [ratio] | ratio of ELISA binding activity (A450-A570) to chimeric TfR over that to His-huTfR (chimeric TfR A03) [ratio] | ratio of ELISA binding activity (A450-A570) to chimeric TfR over that to His-huTfR (chimeric TfR A05 [6]) [ratio] | ratio of ELISA binding activity (A450-A570) to chimeric TfR over that to His-huTfR (chimeric TfR A05 [7]) [ratio] | ratio of ELISA binding activity (A450-A570) to chimeric TfR over that to His-huTfR (chimeric TfR A07 [8]) [ratio] | ratio of ELISA binding activity (A450-A570) to chimeric TfR over that to His-huTfR (chimeric TfR A02 [9]) [ratio] | ratio of ELISA binding activity (A450-A570) to chimeric TfR over that to His-huTfR (chimeric TfR A14 [10]) [ratio] | ratio of ELISA binding activity (A450-A570) to chimeric TfR over that to His-huTfR [11] [ratio] | ratio of ELISA binding activity (A450-A570) to chimeric TfR over that to His-huTfR [12] [ratio] | Binder
binds | no binding | < 0.2 | < 0.2 | < 0.2 | < 0.2 | ≥ 0.5 | 0.2 to 0.5 | ≥ 0.5 | ≥ 0.5 |  |  |  |  |  |  | cyno186 (antibody, V domains shown, also called anti-TfR antibody cyno186) VH: QVQLVESGGEFVQPGGSLRLSCAASGFPFKGYAMNWVRQAPGKGLEWVSRISNGGSYIDYADSVKGRFTISRDNSKNTLYLQIDSLRTEDTAVYYCAKAKDAYRWNNAIDEWGQGTLVTVSS VL: not shown
 |  |  |  |  | < 0.2 | ≥ 0.5 | 0.2 to 0.5 | ≥ 0.5 |  | < 0.2 | ≥ 0.5 | ≥ 0.5 | ≥ 0.5 |  |  | T14 (antibody, V domains shown, IgG4PE or IgG4PE R409K constant region; also called anti-TfR antibody T14) VH: EVQLVESGGGLVQPGGSLRLSCVVSGGTFSNFNMNWVRQAPGKGLEWVSYISGSSSTIYYADSVKGRFTISRDNAKNSLYLQMNSLRDEDTAVYYCVSSSWYYWGQGTLVTVSS VL: not shown
 | no binding |  |  |  |  |  | ≥ 0.5 | ≥ 0.5 | ≥ 0.5 |  | ≥ 0.5 | ≥ 0.5 | ≥ 0.5 | < 0.2 | ≥ 0.5 | 2230 (antibody, V domains shown, From a hybridoma; light chain other than A27; also called clone 2230; anti-TfR antibody 2230) VH: QVQLQESGPGLVKPSETLSLTCTVSGGSISSYYWSWIRQPPGKGLEWIGYIYYSGSTNYNPSLKSRVTISLDTSKNQFSLRLSSVTTADTALYYCTREAGYYDSSGYYGFDYWGQGTLVTVSS VL: DIQMTQSPSSLSASVGDRVTITCRASQGISSWLAWYQQKPEKAPKSLIYAASSLQSGVPSRFSGSGSGTDFTLTISSLQPEDFATYFCQQYYNYPYTFGQGTKLEIK
